Article PMC11509546, “The Antioxidant Effects of Trypsin-Hydrolysate Derived from Abalone Viscera and Fishery By-Products, and the Angiotensin-I Converting Enzyme (ACE) Inhibitory Activity of Its Purified Bioactive Peptides” (Marine Drugs, 2024)
Where a SMILES comes first, the peptide text is derived from it.

Each molecule was assayed against Angiotensin-I converting enzyme (UniProt P12821) (assay: not given). Details: not given.
Angiotensin-I converting enzyme, sequence (P12821 30-1256): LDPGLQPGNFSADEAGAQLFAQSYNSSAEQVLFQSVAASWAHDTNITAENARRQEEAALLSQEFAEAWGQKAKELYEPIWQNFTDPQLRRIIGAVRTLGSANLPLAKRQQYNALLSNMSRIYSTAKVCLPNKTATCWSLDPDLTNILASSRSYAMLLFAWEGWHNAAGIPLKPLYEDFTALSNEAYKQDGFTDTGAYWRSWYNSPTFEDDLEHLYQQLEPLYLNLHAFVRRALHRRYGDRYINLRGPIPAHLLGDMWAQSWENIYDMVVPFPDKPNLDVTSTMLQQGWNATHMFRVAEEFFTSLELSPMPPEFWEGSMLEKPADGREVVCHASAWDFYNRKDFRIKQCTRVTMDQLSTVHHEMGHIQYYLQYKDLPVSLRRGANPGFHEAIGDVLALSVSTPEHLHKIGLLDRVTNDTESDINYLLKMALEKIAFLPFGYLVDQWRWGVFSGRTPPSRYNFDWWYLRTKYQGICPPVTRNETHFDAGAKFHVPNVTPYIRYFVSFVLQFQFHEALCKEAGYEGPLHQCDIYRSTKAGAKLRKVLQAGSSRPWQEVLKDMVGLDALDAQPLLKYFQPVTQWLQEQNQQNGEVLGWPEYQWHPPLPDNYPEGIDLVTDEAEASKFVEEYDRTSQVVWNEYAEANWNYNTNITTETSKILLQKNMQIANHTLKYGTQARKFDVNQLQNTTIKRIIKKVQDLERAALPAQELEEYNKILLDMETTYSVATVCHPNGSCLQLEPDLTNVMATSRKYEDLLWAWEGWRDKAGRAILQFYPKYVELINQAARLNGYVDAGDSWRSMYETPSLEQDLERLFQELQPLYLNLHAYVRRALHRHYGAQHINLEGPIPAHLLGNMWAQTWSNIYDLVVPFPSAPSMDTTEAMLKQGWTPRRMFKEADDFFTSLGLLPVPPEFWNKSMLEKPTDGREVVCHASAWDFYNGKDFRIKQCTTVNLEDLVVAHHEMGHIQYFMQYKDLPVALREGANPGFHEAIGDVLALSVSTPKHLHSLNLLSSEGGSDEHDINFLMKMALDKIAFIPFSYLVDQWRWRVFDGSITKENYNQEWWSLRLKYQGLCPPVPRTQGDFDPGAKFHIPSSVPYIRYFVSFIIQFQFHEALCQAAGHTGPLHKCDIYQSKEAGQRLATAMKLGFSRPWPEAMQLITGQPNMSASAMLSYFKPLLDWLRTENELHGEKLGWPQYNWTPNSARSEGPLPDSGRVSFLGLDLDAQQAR

Molecule	ACE inhibitory activity IC50 (ACE kit-WST, colorimetric enzyme activity assay) [µg/mL]
LDW (peptide)	> 1000
NLGEW	146
LGEW	165
NYER	107
LGPY	> 1000

Second part, the molecule after the results:

ACE inhibitory activity IC50 (ACE kit-WST, colorimetric enzyme activity assay) [µg/mL]	Molecule
104	VAR (peptide)
23	VTPGLQY
23	QFPVGR
4	QLQFPVGR

These molecules were tested against T1, Angiotensin-I converting enzyme (ACE) (Homo sapiens, UniProt P12821) (assay: ACE inhibition activity assay (ACE kit-WST, colorimetric)). Details: 3-hydroxybutyryl-Gly-Gly-Gly substrate, mean ± SD of triplicate, read-out: ACE Inhibitory Activity IC50 Value (converted).
T1 construct: purchased Dojindo Inc., Kumamoto, Japan ACE kit-WST
Type: biochemical
Description: ACE inhibitory activity was determined as previously described. Inhibition was measured using an ACE kit-WST (Dojindo Inc., Kumamoto, Japan), a colorimetric method. Briefly, the inhibitory effect was determined using enzyme activity and the amount of 3-hydroxybutyric acid made from 3-hydroxybutyryl-Gly-Gly-Gly.

T1 sequence (P12821 30-1306, species assumed): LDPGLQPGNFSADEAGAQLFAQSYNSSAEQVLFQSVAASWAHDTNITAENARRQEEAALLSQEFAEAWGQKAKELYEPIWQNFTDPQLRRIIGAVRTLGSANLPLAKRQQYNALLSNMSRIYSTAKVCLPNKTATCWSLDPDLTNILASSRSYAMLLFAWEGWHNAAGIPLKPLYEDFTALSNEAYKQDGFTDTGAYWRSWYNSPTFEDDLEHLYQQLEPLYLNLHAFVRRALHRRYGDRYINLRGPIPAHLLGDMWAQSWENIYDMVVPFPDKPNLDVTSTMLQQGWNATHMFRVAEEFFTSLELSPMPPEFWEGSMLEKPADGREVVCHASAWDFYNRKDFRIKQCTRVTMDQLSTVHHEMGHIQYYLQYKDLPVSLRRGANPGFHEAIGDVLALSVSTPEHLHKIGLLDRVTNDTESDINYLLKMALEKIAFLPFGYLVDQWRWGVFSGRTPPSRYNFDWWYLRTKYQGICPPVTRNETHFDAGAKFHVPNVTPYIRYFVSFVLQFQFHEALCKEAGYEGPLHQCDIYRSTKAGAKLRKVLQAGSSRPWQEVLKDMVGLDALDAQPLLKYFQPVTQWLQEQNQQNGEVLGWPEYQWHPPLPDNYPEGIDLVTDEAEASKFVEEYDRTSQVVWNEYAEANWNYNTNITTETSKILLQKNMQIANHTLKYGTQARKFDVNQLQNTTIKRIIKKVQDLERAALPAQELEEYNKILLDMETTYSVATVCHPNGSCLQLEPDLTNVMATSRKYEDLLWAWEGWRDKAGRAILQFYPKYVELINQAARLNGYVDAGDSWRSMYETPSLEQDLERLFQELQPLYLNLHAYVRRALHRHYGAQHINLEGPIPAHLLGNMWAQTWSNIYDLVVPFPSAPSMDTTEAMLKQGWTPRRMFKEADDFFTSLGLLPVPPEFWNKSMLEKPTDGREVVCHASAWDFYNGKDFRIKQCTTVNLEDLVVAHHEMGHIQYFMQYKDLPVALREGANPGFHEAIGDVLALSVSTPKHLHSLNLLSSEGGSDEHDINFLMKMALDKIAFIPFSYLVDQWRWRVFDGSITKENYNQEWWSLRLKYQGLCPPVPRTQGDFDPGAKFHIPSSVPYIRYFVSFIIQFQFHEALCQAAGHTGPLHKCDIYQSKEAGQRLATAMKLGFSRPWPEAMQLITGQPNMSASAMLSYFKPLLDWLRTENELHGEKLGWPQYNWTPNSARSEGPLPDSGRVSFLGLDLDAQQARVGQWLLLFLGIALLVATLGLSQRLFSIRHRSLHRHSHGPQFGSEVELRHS

Molecule	IC50 [µM]
CC(C)C[C@H](N)C(=O)N[C@@H](CC(=O)O)C(=O)N[C@@H](Cc1c[nH]c2ccccc12)C(=O)O [LDW] (H-Leu-Asp-Trp-OH)	> 2310
CC(C)C[C@H](N)C(=O)NCC(=O)N[C@@H](CCC(=O)O)C(=O)N[C@@H](Cc1c[nH]c2ccccc12)C(=O)O [LGEW] (H-LGEW-OH)	328
CC(C)C[C@H](N)C(=O)NCC(=O)N1CCC[C@H]1C(=O)N[C@@H](Cc1ccc(O)cc1)C(=O)O [LGPY] (H-LGPY-OH)	> 2230
CC(C)C[C@H](NC(=O)[C@@H](N)CC(N)=O)C(=O)NCC(=O)N[C@@H](CCC(=O)O)C(=O)N[C@@H](Cc1c[nH]c2ccccc12)C(=O)O [NLGEW] (H-NLGEW-OH)	236
N=C(N)NCCC[C@H](NC(=O)[C@H](CCC(=O)O)NC(=O)[C@H](Cc1ccc(O)cc1)NC(=O)[C@@H](N)CC(N)=O)C(=O)O [NYER] (H-NYER-OH)	184

The remaining lines, values ahead:

IC50 [µM]	Molecule
4.24	CC(C)C[C@H](NC(=O)[C@@H](N)CCC(N)=O)C(=O)N[C@@H](CCC(N)=O)C(=O)N[C@@H](Cc1ccccc1)C(=O)N1CCC[C@H]1C(=O)N[C@H](C(=O)NCC(=O)N[C@@H](CCCNC(=N)N)C(=O)O)C(C)C [QLQFPVGR] (H-QLQFPVGR-OH)
302	CC(C)[C@H](N)C(=O)N[C@@H](C)C(=O)N[C@@H](CCCNC(=N)N)C(=O)O [VAR] (H-Val-Ala-Arg-OH)
29.6	CC(C)C[C@H](NC(=O)CNC(=O)[C@@H]1CCCN1C(=O)[C@@H](NC(=O)[C@@H](N)C(C)C)[C@@H](C)O)C(=O)N[C@@H](CCC(N)=O)C(=O)N[C@@H](Cc1ccc(O)cc1)C(=O)O [VTPGLQY] (H-VTPGLQY-OH)
